Square brackets hold non-standard residues; d marks the D form. Ends that are not written are not given here. pS = N[C@@H](COP(=O)(O)O)C(=O)O
Biological target: B56γ 31–380 (PP2A regulatory subunit B56) (UniProt Q13362 31-380)
Experiment: ITC

| Kd | also measured | Binder |
| --- | --- | --- |
| 100 nM |  | RDIASKKPLL[pS]PIPELPEVPE [pS-RepoMan peptide, 581-RDIASKKPLL-pS-PIPELPEVPE-601 (mono-phosphorylated RepoMan)] |
| 600 nM |  | TLSIKKL[pS]PIIEDDREADH [pS-BubR1 peptide, 663-TLSIKKL-pS-PIIEDDREADH-681 (mono-phosphorylated BubR1)] |
|  | fold weaker binding than the peptide with residue 676: ~1.7 fold | KL[pS]PIIED [BubR1 peptide 668-KLpSPIIED-675] |
|  | fold increase of affinity as salt is reduced from 300 mM to 150 mM: ~3.6 fold | KL[pS]PIIEDE [BubR1 peptide 668-KLpSPIIEDE-676] |
|  | fold weaker affinity than KLpSPIIEDE: 2.4 fold | KLEPIIEDE [BubR1 peptide 668-KLEPIIEDE-676] |
| 2000 nM |  | KL[pS]PIIED[pS] [pSpS-BubR1 peptide, 668-KL-pS-PIIED-pS-676 (dually-phosphorylated BubR1)] |

Source: paper PMC5180209 (Structure (London, England : 1993), 2016)
